Results as given in doi:10.1101/2025.08.25.672209, “Molecular Architecture and Function Mechanism of Tri-heteromeric GluN1-N2-N3A NMDA Receptors” (bioRxiv, 2025).

Key:
[1] = molecular target: T1, GluN1-N3A di-heteromeric NMDA receptor (rat, CTD-truncated; fraction of the same preparation) (rat, UniProt P35439-1;Q9R1M7-1); test: SEC; fluorescence-detection size-exclusion chromatography (FSEC); receptors preincubated with N1-Fab 4F11, N2A-Fab 28C or both; shift of the elution peak; settings: both partners purified
T1 construct: signal peptide in the construct; rat GluN1-1a, residues 1-847, as m1; rat GluN3A, residues 1-965, as m3; also called GluN1-N3A di-NMDARs; source: HEK293S GnTI- cells, baculovirus transduction; copies: 2 + 2

[2] = molecular target: T2, rat GluN1-1a (residues 1-847), CTD-truncated (rat, UniProt P35439-1); test: cryo-EM structure; GluN1-N2A-N3A (subunits co-expressed and co-purified) incubated with Fabs 4F11 and 2-8C, SEC in digitonin with 1 mM glycine and 1 mM glutamate, pH 8.0; overall resolution 7.7 Å; settings: both partners purified
T2 construct: signal peptide in the construct; rat GluN1-1a, residues 1-847 (CTD-truncated), GenBank NP_058706.1; no tag is stated for GluN1 itself; a T2A remnant may remain on one of the two chains (surmise); source: HEK293S GnTI- cells, baculovirus transduction, co-expressed with GluN2A and GluN3A; purified as receptor complex (Strep-Tactin, Ni resin, SEC)

- binding result [1]: binds
- binding result [2]: binds
B1: N1-Fab 4F11 (Fab of the anti-GluN1 monoclonal antibody clone 4F11) (Fab, V domains shown)
VH: DVQLQESGPGLVKPSQSLSLTCTVTGYSITSDYAWNWIRQFPGNKLEWMGYISYSGSTGYNPSLKSRISITRDTSKNQFFLQLNSVTTEDTATYYCARLYYGFYGMDYWGQGTSVTVSS
VL: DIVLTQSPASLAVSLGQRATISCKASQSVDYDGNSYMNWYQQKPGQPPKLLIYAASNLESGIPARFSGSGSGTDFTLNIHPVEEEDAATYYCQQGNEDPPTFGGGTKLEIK
notes: Raised against CTD-truncated human GluN1-N2A receptors; also called Fab-N1_(4F11); source: hybridoma monoclonal antibody, papain digestion, Fc removed with protein-A agarose, purified by SEC
